B1: BioT6SS1-p (dsDNA)
DNA 1: TATCGCAATAAAAATGCCACTCATGTTTTAATATA
DNA 2: TATATTAAAACATGAGTGGCATTTTTATTGCGATA
B2: T6SS1-p (unlabeled) (dsDNA)
DNA 1: B1 DNA 1
DNA 2: B1 DNA 2

Columns and labels:
[1] = biological target: T1, His6-Fur (UniProt Q66DC2 1-148); experiment: EMSA; 5 mM MgCl2, 50 ng poly(dI-dC); […] (pH not stated); ITC: PBS, 25 C; details: protein: recombinant; tags: His6; chain copies: 2; label: 5' biotin (BioT6SS-1pF); blunt
[2] = biological target: T1, His6-Fur; experiment: competition; […] (pH not stated); ITC: PBS, 25 C; details: protein: recombinant; tags: His6; chain copies: 2; blunt

Row | Binder | binding result [1] | binding result [2]
1 | B1 | binds | 
2 | B2 |  | binds
